# According to CN111138527A (INST MILITARY MEDICINE ACADEMY MILITARY SCIENCES PLA, dated 2020):
# T1: EBOV GP (Ebola virus (EBOV), UniProt Q05320 33-650)
# T1 sequence: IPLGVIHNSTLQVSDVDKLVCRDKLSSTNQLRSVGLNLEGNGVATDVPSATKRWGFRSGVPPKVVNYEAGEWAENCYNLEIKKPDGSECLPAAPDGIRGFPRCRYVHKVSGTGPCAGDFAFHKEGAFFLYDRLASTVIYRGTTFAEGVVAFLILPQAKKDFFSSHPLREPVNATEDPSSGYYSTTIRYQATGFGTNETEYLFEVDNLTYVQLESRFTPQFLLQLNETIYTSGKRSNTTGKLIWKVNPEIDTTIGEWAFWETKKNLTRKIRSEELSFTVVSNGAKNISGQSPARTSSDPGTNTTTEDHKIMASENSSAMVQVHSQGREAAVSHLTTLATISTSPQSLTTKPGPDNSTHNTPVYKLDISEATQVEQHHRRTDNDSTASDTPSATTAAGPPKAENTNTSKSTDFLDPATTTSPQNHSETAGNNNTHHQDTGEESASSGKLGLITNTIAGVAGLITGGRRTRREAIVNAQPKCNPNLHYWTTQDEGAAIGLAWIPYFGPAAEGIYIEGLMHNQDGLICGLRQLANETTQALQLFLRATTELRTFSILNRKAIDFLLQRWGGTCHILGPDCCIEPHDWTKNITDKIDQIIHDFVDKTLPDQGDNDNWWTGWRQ
# What was measured:
# EBOV GP = target: T1, EBOV GP; assay: ELISA, EBOV GP coated at 1 μg/mL
# GP 95-295 = GP 95-295 (Ebola virus (EBOV), UniProt Q05320 95-295); assay: ELISA on coated truncated GP
# GP1 = GP1 (Ebola virus (EBOV), UniProt Q05320 33-501); assay: ELISA on coated truncated GP
# sGP = sGP (Ebola virus (EBOV), UniProt P60170 33-295); assay: ELISA on coated truncated GP
binder,measurement,setting,value
"抗埃博拉病毒糖蛋白GP1亚基的单克隆抗体4F1 (antibody, V domains shown) VH: EVQLVESGGGLVQPGGSLRLSCAASGFSFRIYDMHWVRQVTGRGLEWVSAIGSASDTYYRDSVKGRFTISRENAKNSLYLQMNSLRAGDTAVYYCARASFGELMFDLWGQGTLVTVSS VL: DIQMTQSPSSLSLSPGERATLSCRASQSVGSSLAWYQQKPGQAPRLLIYAASSRATGFPDRFSGSGSGTDFTLTISRLEPEDFAVYYCQQYGGSPLTFGGGTKVEIKT",EC50,EBOV GP,5.7 ng/mL
same,EC50,GP 95-295,33 ng/mL
same,fold decrease of binding activity relative to GPdTM,GP 95-295,~5 fold
same,EC50,GP1,7.8 ng/mL
same,EC50,sGP,3.9 ng/mL
